{"source": "patent US20070213253A1", "about": "“Synuclein Mutant Having Aggregation-Inhibitory Activity” (priority 2003, published 2007)", "target": "T1, wild type α-synuclein (Homo sapiens, UniProt P37840)", "T1 construct": "made in house; host or cells: Escherichia coli (pTYB1/α-syn; strain ER2566 is named for the mutants)", "test": "Inhibition of fibril formation of wild type α-synuclein by partial structure peptide, TfT fluorescence", "type": "biochemical", "conditions": "peptide 0.2 mg/ml in 2 mg/ml wild type α-synuclein, 37° C.", "protocol": "A synthetic α-synuclein partial structure peptide consisting of 10 amino acid residues of NH2-[…]COOH was dissolved at 0.2 mg/ml in a 2 mg/ml solution of purified wild type α-synuclein, and incubated at 37° C. Aliquot of 10 μl was collected in predetermined intervals. To the collected sample was added a buffer solution of 10 mM Tris-HCl, pH 7.4, containing a fluorescent dye thioflavine T (TfT), which specifically binds to a fibril structure, in a final concentration of 25 μM to make a volume of 100 μl, and fluorescence spectrum was monitored immediately (Ex 440 nm; Em 450-550 nm). The fibril formation rate and the amount thereof were determined from the increase in the fluorescence intensity of TfT."}
{"substance": "NH2-Val-Gly-Gly-Ala-Thr-Thr-Thr-Gly-Val-Thr-COOH (H-VGGATTTGVT-OH) [α-synuclein partial structure peptide, synthetic α-synuclein partial structure peptide consisting of 10 amino acid residues]", "values": [{"measurement": "decrease of the fibril formation ability of the wild type α-synuclein (to the extent of)", "value": "about 20%"}]}
